The record followed here is article PMC8203779, “Distinct mechanisms of the human mitoribosome recycling and antibiotic resistance” (Nature Communications, 2021).

The target of the experiment is mitoribosomal protein uL12m (39S subunit, L10-L12 stalk) (human (endogenous in HEK293S GnTI), UniProt P52815 37-198). Description: cryo-EM structure; model PoTC (150 nM 55S mitoribosomes + 50 uM puromycin, 10 min 37 °C) with 15 uM RRFmt (5 min 37 °C), then 5 uM EF-G2mt + 200 uM GMPPCP (5 s, 30 s, 2 min, 37 °C), HEPES polymix buffer pH 7.5; single-particle classes: Class I 55S•RRFmt, Class II 55S•RRFmt•EF-G2mt•GMPPCP, Class III 39S•RRFmt•EF-G2mt•GMPPCP. The settings on record: both partners purified.

B1: human EF-G2mt (recycling-specific mitochondrial homolog of elongation factor G) (natural protein)
chain: MLTNLRIFAMSHQTIPSVYINNICCYKIRASLKRLKPHVPLGRNCSSLPGLIGNDIKSLHSIINPPIAKIRNIGIMAHIDAGKTTTTERILYYSGYTRSLGDVDDGDTVTDFMAQERERGITIQSAAVTFDWKGYRVNLIDTPGHVDFTLEVERCLRVLDGAVAVFDASAGVEAQTLTVWRQADKHNIPRICFLNKMDKTGASFKYAVESIREKLKAKPLLLQLPIGEAKTFKGVVDVVMKEKLLWNCNSNDGKDFERKPLLEMNDPELLKETTEARNALIEQVADLDDEFADLVLEEFSENFDLLPAEKLQTAIHRVTLAQTAVPVLCGSALKNKGIQPLLDAVTMYLPSPEERNYEFLQWYKDDLCALAFKVLHDKQRGPLVFMRIYSGTIKPQLAIHNINGNCTERISRLLLPFADQHVEIPSLTAGNIALTVGLKHTATGDTIVSSKSSALAAARRAEREGEKKHRQNNEAERLLLAGVEIPEPVFFCTIEPPSLSKQPDLEHALKCLQREDPSLKVRLDPDSGQTVLCGMGELHIEIIHDRIKREYGLETYLGPLQVAYRETILNSVRATDTLDRTLGDKRHLVTVEVEARPIETSSVMPVIEFEYAESINEGLLKVSQEAIENGIHSACLQGPLLGSPIQDVAITLHSLTIHPGTSTTMISACVSRCVQKALKKADKQVLEPLMNLEVTVARDYLSPVLADLAQRRGNIQEIQTRQDNKVVIGFVPLAEIMGYSTVLRTLTSGSATFALELSTYQAMNPQDQNTLLNRRSGLT
notes: mitochondrial elongation factor G2 (EF-G2mt), human, 87 kD; contact residues up to Leu778 are printed; Cloned into pGEX6.1; also called EF-G2mt-GMPPCP; source: Rossetta (pLysS + RARE) cells, purified (GSTrap HP, GST cleaved with 3C protease, HiTrap Q HP)
On to B1, for which the binding result is reported as “binds”.
